Source: patent CN114984227A (BIO THERA SOLUTIONS LTD, dated 2022)

T1: 人TIGIT (TIGIT-Jurkat细胞表面) (human, UniProt Q495A1 22-244)
T1 construct: whole, on cells
T1 sequence (looked up): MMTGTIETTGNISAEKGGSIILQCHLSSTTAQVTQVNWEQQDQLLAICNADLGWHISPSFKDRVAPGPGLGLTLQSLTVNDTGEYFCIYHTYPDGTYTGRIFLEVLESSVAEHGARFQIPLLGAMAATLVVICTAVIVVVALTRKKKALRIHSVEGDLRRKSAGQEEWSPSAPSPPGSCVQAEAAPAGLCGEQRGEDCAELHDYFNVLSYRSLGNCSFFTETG


The binders below were run against T1, 人TIGIT (TIGIT-Jurkat细胞表面) (assay: flow cytometry competition: blocking of PVR-Fc-bio (12.5 nM) binding to TIGIT-Jurkat cells).

Row | IC50 [nM] | Binder
1 | 0.441 | 抗体h10D8OF (antibody, human IgG1, kappa, V domains shown, also called 抗TIGIT抗体) VH: QVQLVESGGGVVQPGRSLRLDCKASGFTFSSYGMSWVRQAPGKGLELVATINSNGGSTYYPDSVKGRFTISRDNSKNTLFLQMNSLRAEDTAVYYCARLGTGTLGFAYWGQGTLVTVSS VL: EIVMTQSPATLSLSPGERATLSCKASQDVKTAVSWYQQKPGQAPRLLIYWASTRATGIPARFSGSGSGTDYTLTISSLEPEDFAVYYCQQHYSTPWTFGQGTKVEIKR
2 | 0.742 | 抗体h10D8OFKF (antibody, human IgG1, kappa, V domains shown, also called 抗TIGIT抗体) VH: QVQLVESGGGVVQPGRSLRLDCKASGFTFSSYGMSWVRQAPGKGLELVATINSNGGSTYYPDSVKGRFTISRDNSKNTLFLQMNSLRAEDTAVYYCARLGTGTLGFAYWGQGTLVTVSS VL: EIVMTQSPATLSLSPGERATLSCKASQDVKTAVSWYQQKPGQAPRLLIYWASTRATGIPARFSGSGSGTDYTLTISSLEPEDFAVYYCQQHYSTPWTFGQGTKVEIKR
3 | 2.82 | 参照抗体Tiragolumab (antibody, V domains shown) VH: EVQLQQSGPGLVKPSQTLSLTCAISGDSVSSNSAAWNWIRQSPSRGLEWLGKTYYRFKWYSDYAVSVKGRITINPDTSKNQFSLQLNSVTPEDTAVFYCTRESTTYDLLAGPFDYWGQGTLVTVSS VL: not shown
